Source: US6657045 (NEW ENGLAND MEDICAL CENTER HOSPITALS, dated 2003)

What was measured:
Glycine max agglutinin = target: T1, Glycine max agglutinin (Glycine max, UniProt P05046 33-285, biotinylated); assay: biotinylated lectin blot of shed proteins
T1 construct: Lectin; also called SBA
Text: (§1) In order to determine the nature of the carbohydrates present, SP were probed with a panel of biotinylated lectins of varying sugar specificity (Table 1).

[1] = target: T2, Ulex europeus agglutinin-1 (Ulex europeus, UniProt P22972 1-243, biotinylated); assay: biotinylated lectin blot of shed proteins
T2 construct: Lectin; also called UEA-1
T2 sequence: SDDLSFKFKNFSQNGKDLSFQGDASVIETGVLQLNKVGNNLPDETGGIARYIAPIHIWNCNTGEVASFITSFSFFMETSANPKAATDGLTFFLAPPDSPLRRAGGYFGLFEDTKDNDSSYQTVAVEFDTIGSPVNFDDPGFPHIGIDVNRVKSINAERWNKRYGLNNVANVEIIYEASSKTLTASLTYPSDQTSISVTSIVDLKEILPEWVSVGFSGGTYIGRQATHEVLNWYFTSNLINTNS
Text: as §1

T1 sequence (P05046 33-285 limits assumed): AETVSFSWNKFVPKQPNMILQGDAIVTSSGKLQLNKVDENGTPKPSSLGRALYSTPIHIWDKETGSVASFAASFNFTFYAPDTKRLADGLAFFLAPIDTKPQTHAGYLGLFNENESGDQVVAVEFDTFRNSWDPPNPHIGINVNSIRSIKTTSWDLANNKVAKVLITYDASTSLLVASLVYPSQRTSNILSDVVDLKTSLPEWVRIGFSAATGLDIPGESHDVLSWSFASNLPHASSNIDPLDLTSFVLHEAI

B1: gp40 (native 40 kDa glycoprotein of Cryptosporidium parvum) (other)
chain: DVPVEGSSSSSSSSSSSSSSSSSSSTSTVAPANKARTGEDAEGSQDSSGTEASGSQGSEEEGSEDDGQTSAASQPTTPAQSEGATTETIEATPKEECGTSFVMWFGEGTPAATLKCGAYTIVYAPIKDQTDPAPRYISGEVTSVTFEKSDNTVKIKVNGQDFSTLSANSSSPTENGGSAGQASSRSRRSLSE
modifications: native glycoprotein: O-linked glycans with terminal α-linked GalNAc on Ser/Thr
notes: Native protein from oocysts, sporozoites, shed proteins or HPA-purified lysate; also called 40,000 Mr peptide; 40 kDa band
Glycine max agglutinin
  binding result: binds
[1]
  binding result: binds
